The text below walks through data of patent US20260258083A1 (Amgen, published 2026).

Test [1] addresses T1, FLT3xCD3 TCE SEQ ID NO 93.
T1 construct: Single-chain scFv-scFv-scFc T cell engager; also called FLT3×CD3ε TCE; FLT3_7 A8xCD3-scFc Bispecific HLE molecule
Put plainly: KinExA equilibrium in solution, KD relative to peptide concentration, TCE 125 pM. (A kinetic exclusion assay measures how much of one partner remains free in solution.)

Test [2] addresses T1, FLT3xCD3 TCE SEQ ID NO 93. Put plainly: KinExA equilibrium in solution, KD relative to peptide concentration, TCE 250 pM; alias in this row reads 20 k Linear Thioether.
Test [3] deals with T1, FLT3xCD3 TCE SEQ ID NO 93. Put plainly: KinExA equilibrium in solution, KD relative to peptide concentration, TCE 250 pM.
Test [4] concerns the target T2, scFv region of I2C.
T2 construct: also called VH-VL of I2C
Put plainly: co-crystal structure used as input for the modelling.

Test [5] has as its target T3, Steap 1xCD3 TCE SEQ ID NO 373 + 374 + 375.
T3 construct: also called STEAP1×CD3e heterodimeric TCE; Ab-A1 Xmab2+1
Kind of test: KinExA equilibrium in solution, KD relative to peptide concentration, TCE 333 pM. Here is the method: 1. […] 2. […] 3. […] 4. Added 80 mM PDEA to activate the resin for thiol exchange, 10 mins, r.t. […] 5. […] 6. […] 7. […] 8.

The Kd is the equilibrium constant for the complex coming apart.

Where no end group is shown, it is not given here. Side-chain parts run from the residue outwards. [ ]: non-standard residue; d: D form. pGlu = O=C1CC[C@@H](C(=O)O)N1

Regarding [pGlu]DGNEELKGK-OH (also: Lys 10 side chain linked via thioether (acetamide) to 4-arm 20 kDa PEG, TCE masking molecule) [73135-2], the figures for the dissociation constant Kd in test [1] and in test [2] were 0.0122 nM and 0.153 nM, respectively.
[pGlu]DGNEELKGK([acetamide‑thioether-mPEG 20 kDa])-OH (also: Lys 10 side chain linked via thioether (acetamide) to linear 20 kDa mPEG, TCE masking molecule) [73136-2]: in test [3], the Kd worked out at 0.173 nM.

B1: pE-DGNEELK (peptide)
peptide: [pGlu]DGNEELK
notes: Position 1 is written E for pE; also called CD3ε peptide
On to B1, for which the binding result in test [4] was “binds”.

B2: pEDGNEELKGC-NH2 (peptide)
peptide: [pGlu]DGNEELKGC-NH2
SMILES: CC(C)C[C@H](NC(=O)[C@H](CCC(=O)O)NC(=O)[C@H](CCC(=O)O)NC(=O)[C@H](CC(N)=O)NC(=O)CNC(=O)[C@H](CC(=O)O)NC(=O)[C@@H]1CCC(=O)N1)C(=O)N[C@@H](CCCCN)C(=O)NCC(=O)N[C@@H](CS)C(N)=O
notes: Unconjugated peptide (Conjugate column: N/A)
In the case of B2, the Kd in test [5] is 1.59 nM.
